For the assay, the target named is acetylcholine receptor. Nature of the assay: SPR, receptor immobilized, peptide 10 uM.

The record followed here is patent publication US20250011363A1, “OPTIMIZED SHORTENED PEPTIDE THAT BINDS TO ACETYLCHOLINE RECEPTOR, AND USE THEREOF” (SKINMED CO., LTD., priority 2021, published 2025).

With RTSIRK [6mer-2-891], the Binding affinity (RU) was 28 RU. As to KEADK [5mer-750], the Binding affinity (RU) came to 13 RU.

For the molecule RKCAKK [6mer-2-864], the Binding affinity (RU) was determined as 12 RU. KPPGR [5mer-1049] registered a Binding affinity (RU) of 29 RU. RTPAKR [6mer-2-882]: the Binding affinity (RU) came out at 15 RU. RTCARR [6mer-2-896]: the Binding affinity (RU) was found to be 30 RU.

As for KAPDRK [6mer-2-843], the Binding affinity (RU) stood at 33 RU. Consider KMTMKK [6mer-2-884], for which the Binding affinity (RU) was found to be 11 RU.

As for REMIKR [6mer-2-855], the Binding affinity (RU) was determined as 19 RU. The molecule RIDHRK [6mer-2-875] registered a Binding affinity (RU) of 13 RU. The molecule KYWEKK [6mer-2-867] displayed a Binding affinity (RU) of 32 RU. Turning to RDNPKR [6mer-2-890], the Binding affinity (RU) was 30 RU.

In turn, RKHWRR [6mer-2-863] showed a Binding affinity (RU) of 17 RU. As for KFWWRR [6mer-2-851], the figure is 19 RU; as for KPNHRK [6mer-2-841], 33 RU. Turning to KNWGRR [6mer-2-873], the Binding affinity (RU) amounted to 11 RU. RHDHKR [6mer-2-869]: the Binding affinity (RU) worked out at 18 RU.

In the case of RMTERK [6mer-2-848], the Binding affinity (RU) was 29 RU. Turning to KEDNKR [6mer-2-876], the Binding affinity (RU) was found to be 17 RU. On to KMTEKK [6mer-2-870], for which the Binding affinity (RU) is 21 RU.

KEEHRR [6mer-2-858] had a Binding affinity (RU) of 30 RU. The molecule KTHFRK [6mer-2-872] yielded a Binding affinity (RU) of 28 RU. On to KEPMRR [6mer-2-856], for which the Binding affinity (RU) was 14 RU. In the case of RNTAKK [6mer-2-849], the Binding affinity (RU) came out at 13 RU.

With RYMMR [5mer-751], the Binding affinity (RU) is 20 RU. With KHTGRR [6mer-2-853] the figure was 29 RU. Take KDTDRK [6mer-2-861]: the Binding affinity (RU) was determined as 21 RU. REMPKR [6mer-2-871] had a Binding affinity (RU) of 31 RU. In turn, KHTEKK [6mer-2-857] showed a Binding affinity (RU) of 20 RU. Consider KPPERR [6mer-2-877], for which the Binding affinity (RU) amounted to 17 RU. Molecule KMKEKR [6mer-2-845] gave a Binding affinity (RU) of 14 RU. Molecule KYMAKK [6mer-2-895] showed a Binding affinity (RU) of 28 RU. For the molecule KAWVK [5mer-752], the Binding affinity (RU) was 26 RU. With KPKMRR [6mer-2-842] the figure was 22 RU; with RTNEKR [6mer-2-883], 22 RU. For the molecule RTHHKK [6mer-2-880], the Binding affinity (RU) came to 12 RU. For the molecule KHTWR [5mer-749], the Binding affinity (RU) was found to be 24 RU. As for KPEDR [5mer-1050], the Binding affinity (RU) was found to be 31 RU. As for REDFRR [6mer-2-837], the Binding affinity (RU) was found to be 32 RU. With KDTEKK [6mer-2-881] the figure was 33 RU; with RCNWKR [6mer-2-854], 23 RU. On to KIHFRK [6mer-2-874], for which the Binding affinity (RU) stood at 33 RU. In turn, RHCNRK [6mer-2-865] gave a Binding affinity (RU) of 16 RU.

KPNFRR [6mer-2-860] had a Binding affinity (RU) of 31 RU. As for KDWDRK [6mer-2-840], the figure is 15 RU. With KCMVRR [6mer-2-885], the Binding affinity (RU) was 17 RU. For RCTVRK [6mer-2-838], the Binding affinity (RU) was determined as 13 RU.

Consider RNDWR [5mer-1052], for which the Binding affinity (RU) was determined as 17 RU. In turn, RPAHKK [6mer-2-897] yielded a Binding affinity (RU) of 17 RU.

For RFHWRR [6mer-2-894], the Binding affinity (RU) stood at 22 RU. With RTPNRR [6mer-2-868] the figure was 30 RU; with RMDFRK [6mer-2-859], 21 RU. With KTSMKR [6mer-2-850] the figure was 16 RU. RDNPKK [6mer-2-866]: the Binding affinity (RU) came out at 24 RU. In turn, KKKDKK [6mer-2-898] yielded a Binding affinity (RU) of 16 RU. In the case of KDENRK [6mer-2-892], the Binding affinity (RU) came to 27 RU. Take RYAHR [5mer-1051]: the Binding affinity (RU) came to 28 RU. The molecule RCPKKR [6mer-2-887] registered a Binding affinity (RU) of 18 RU. With RYCHKR [6mer-2-847] the figure was 22 RU. Molecule RTMDRR [6mer-2-879] returned a Binding affinity (RU) of 19 RU. RHTFKK [6mer-2-862] displayed a Binding affinity (RU) of 29 RU. REHVRR [6mer-2-893] showed a Binding affinity (RU) of 17 RU. On to RFSFKR [6mer-2-846], for which the Binding affinity (RU) was found to be 30 RU. In turn, REWDKK [6mer-2-889] showed a Binding affinity (RU) of 12 RU. In turn, KETVRR [6mer-2-878] gave a Binding affinity (RU) of 24 RU. RDPKKK [6mer-2-844] gave a Binding affinity (RU) of 22 RU.

KTWVRR [6mer-2-886] yielded a Binding affinity (RU) of 13 RU. Regarding RKTPK [5mer-753], the Binding affinity (RU) amounted to 30 RU.

In the case of KNHNRR [6mer-2-839], the Binding affinity (RU) turned out to be 32 RU. The molecule RIAKRK [6mer-2-888] gave a Binding affinity (RU) of 17 RU. On to RNCERR [6mer-2-852], for which the Binding affinity (RU) is 28 RU.
